Data on ten molecules can be found in US10703784B2, “Antigens and epitopes derived from Mycobacterium tuberculosis” (priority 2011, dated 2020).

The test system of this assay is PBMCs from LTBI donors (IFN-γ production). It counts as cell-based, human. To be noted: ex vivo IFN-γ ELISPOT; for Resp. freq.: fraction of 28 LTBI donors responding to epitopes of the antigen; for Total SFC: total spot-forming cells, LTBI donors.

B1: Rv3125c: MTB protein, novel CD4 T cell antigen; PE/PPE (protein, listed as Mycobacterium tuberculosis)
chain: MVLGFSWLPPEINSARMFAGAGSGPLFAAASAWEGLAADLWASASSFESVLAALTTGPWTGPASMSMAAAASPYVGWLSTVASQAQLAAIQARAAATAFEAALAATVHPTAVTANRVSLASLIAANVLGQNTPAIAATEFDYLEMWAQDVAAMVGYHAGAKSVAATLAPFSLPPVSLAGLAAQVGTQVAGMATTASAAVTPVVEGAMASVPTVMSGMQSLVSQLPLQHASMLFLPVRILTSPITTLASMARESATRLGPPAGGLAAANTPNPSGAAIPAFKPLGGRELGAGMSAGLGQAQLVGSMSVPPTWQGSIPISMASSAMSGLGVPPNPVALTQAAGAAGGGMPMMLMPMSISGAGAGMPGGLMDRDGAGWHVTQARLTVIPRTGVG
Regarding B1, the Resp. freq. was 21% and the “Total SFC” value was 125 SFC.

B2: Rv3135: MTB protein, novel CD4 T cell antigen; PE/PPE (protein, listed as Mycobacterium tuberculosis)
chain: B1 chain
As to B2, the Resp. freq. worked out at 18% and the “Total SFC” value is reported as 317 SFC.

B3: Rv0293c: MTB protein, novel CD4 T cell antigen; Conserved hypotheticals, Island 1 (protein, listed as Mycobacterium tuberculosis)
chain: MSGTFTADAIGPPVPIPDVPGADAGAEGLPSRSVLSARQRILVESSAIADVALRTAVASVLSATVTPAVVANALRHVNEGSERSNLNFYAELAAAHDPAKSFPAPTELPKVTSRPASPLTEWVARGTVDNIAFASGFRAINPTMRQRWSALTANNIVHAQHWRHRDGPRPTLCVIHGFMGSSYLLNGLFFSLPWYYRSGYDVLLYTLPFHGQRAEKFSPFSGFGYFTSGLSGFAEAMAQAVYDFRSIVDYLRHIGVDRIALTGISLGGYTSALLASVESRLEAVIPNCPVVMPAKLFDEWFPANKLVKLGLRLTNISRDELIAGLAYHGPLNYRPLLPKDRRMIITGLGDRMAPPEHAVTLWKQWDRCALHWFPGSHLLHVSQLDYLRRMTVFLQGLMFD
Consider B3, for which the Resp. freq. is 14% and the “Total SFC” value is 1073 SFC.

B4: Rv0291: MTB protein, novel CD4 T cell antigen; Intermediary metabolism and respiration, Island 1 (protein, listed as Mycobacterium tuberculosis)
chain: MIRAAFACLAATVVVAGWWTPPAWAIGPPVVDAAAQPPSGDPGPVAPMEQRGACSVSGVIPGTDAGVPTPSQTMLNLPAAWQFSRGEGQLVAIIDTGVQPGPRLPNVDAGGDFVESTDGLTDCDGHGTLVAGIVAGQPGNDGFSGVAPAARLLSIRAMSTKFSPRTSGGDPQLAQATLDVAVLAGAIVHAADLGAKVINVSTITCLPADRMVDQAALGAAIRYAAVDKDAVIVAAAGNTGASGSVSASCDSNPLTDLSRPDDPRNWAGVTSVSIPSWWQPYVLSVASLTSAGQPSKFSMPGPWVGIAAPGENIASVSNSGDGALANGLPDAHQKLVALSGTSYAAGYVSGVAALVRSRYPGLNATEVVRRLTATAHRGARESSNIVGAGNLDAVAALTWQLPAEPGGGAAPAKPVADPPVPAPKDTTPRNVAFAGAAALSVLVGLTAATVAIARRRREPTE
For the molecule B4, the Resp. freq. was found to be 14% and the “Total SFC” value came out at 1153 SFC.

B5: Rv2874: MTB protein, novel CD4 T cell antigen; Intermediary metabolism and respiration (protein, listed as Mycobacterium tuberculosis)
chain: MVESRRAAAAASAYASRCGIAPATSQRSLATPPTISVPSGEGRCRCHVARGAGRDPRRRLRRRRWCGRCGYHSHLTGGEFDVNRLCQQRSRERSCQLVAVPADPRPKRQRITDVLTLALVGFLGGLITGISPCILPVLPVIFFSGAQSVDAAQVAKPEGAVAVRRKRALSATLRPYRVIGGLVLSFGMVTLLGSALLSVLHLPQDAIRWAALVALVAIGAGLIFPRFEQLLEKPFSRIPQKQIVTRSNGFGLGLALGVLYVPCAGPILAAIVVAGATATIGLGTVVLTATFALGAALPLLFFALAGQRIAERVGAFRRRQREIRIATGSVTILLAVALVFDLPAALQRAIPDYTASLQQQISTGTEIREQLNLGGIVNAQNAQLSNCSDGAAQLESCGTAPDLKGITGWLNTPGNKPIDLKSLRGKVVLIDFWAYSCINCQRAIPHVVGWYQAYKDSGLAVIGVHTPEYAFEKVPGNVAKGAANLGISYPIALDNNYATWTNYRNRYWPAEYLIDATGTVRHIKFGEGDYNVTETLVRQLLNDAKPGVKLPQPSSTTTPDLTPRAALTPETYFGVGKVVNYGGGGAYDEGSAVFDYPPSLAANSFALRGRWALDYQGATSDGNDAAIKLNYHAKDVYIVVGGTGTLTVVRDGKPATLPISGPPTTHQVVAGYRLASETLEVRPSKGLQVFSFTYG
For the molecule B5, the Resp. freq. came to 18% and the “Total SFC” value is given as 798 SFC.

B6: Rv0294: MTB protein, novel CD4 T cell antigen; Intermediary metabolism and respiration, Island 1 (protein, listed as Mycobacterium tuberculosis)
chain: MWDPDVYLAFSGHRNRPFYELVSRVGLERARRVVDLGCGPGHLTRYLARRWPGAVIEALDSSPEMVAAAAERGIDATTGDLRDWKPKPDTDVVVSNAALHWVPEHSDLLVRWVDELAPGSWIAVQIPGNFETPSHAAVRALARREPYAKLMRDIPFRVGAVVQSPAYYAELLMDTGCKVDVWETTYLHQLTGEHPVLDWITGSALVPVRERLSDESWQQFRQELIPLLNDAYPPRADGSTIFPFRRLFMVAEVGGARRSGG
Consider B6, for which the Resp. freq. was 18% and the “Total SFC” value was determined as 1368 SFC.

B7: Rv0292: MTB protein, novel CD4 T cell antigen; Cell wall and cell processes, Island 1, Esx-3 (protein, listed as Mycobacterium tuberculosis)
chain: MNPIPSWPGRGRVTLVLLAVVPVALAYPWQSTRDYVLLGVAAAVVIGLFGFWRGLYFTTIARRGLAILRRRRRIAEPATCTRTTVLVWVGPPASDTNVLPLTLIARYLDRYGIRADTIRITSRVTASGDCRTWVGLTVVADDNLAALQARSARIPLQETAQVAARRLADHLREIGWEAGTAAPDEIPALVAADSRETWRGMRHTDSDYVAAYRVSANAELPDTLPAIRSRPAQETWIALEIAYAAGSSTRYTVAAACALRTDWRPGGTAPVAGLLPQHGNHVPALTALDPRSTRRLDGHTDAPADLLTRLHWPTPTAGAHRAPLTNAVSRT
For the molecule B7, the Resp. freq. stood at 14% and the “Total SFC” value turned out to be 708 SFC.

B8: Rv0124: MTB protein, novel CD4 T cell antigen; PE/PPE (protein, listed as Mycobacterium tuberculosis)
chain: MSFVSVAPEIVVAAATDLAGIGSAISAANAAAAAPTTAVLAAGADEVSAAIAALSGHAQAYQALSAQAAAFHQQFVQTLAGGAGAYAAAEAQVEQQLLAAINAPTQALLGRPLIGNGADGAPGTGQAGGAGGILYGNGGNGGSGAAGQAGGAGGPAGLIGHGGSGGAGGSGAAGGAGGHGGWLWGNGGVGGSGGAGVGAGVAGGHGGAGGAAGLWGAGGGGGNGGNGADANIVSGGDGGLGGAGGGGGWLYGDGGAGGHGGQGAIGLGGGAGGDGGQGGAGRGLWGTGGAGGHGGQGGGTGGPPLPGQAGMGAAGGAGGLIGNGGAGGDGGVGASGGVAGVGGAGGNAMLIGHGGAGGAGGDSSFANGAAGGAGGAGGHLFGNGGSGGHGGAVTAGNTGIGGAGGVGGDARLIGHGGAGGAGGDRAGALVGRDGGPGGNGGAGGQLYGNGGDGAPGTGGTLQAAVSGLVTALFGAPGQPGDTGQPG
With B8, the Resp. freq. is recorded as 14% and the “Total SFC” value is reported as 177 SFC.

B9: Rv3876: MTB protein, novel CD4 T cell antigen; Cell wall and cell processes, Island 3, Esx-1 (protein, listed as Mycobacterium tuberculosis)
chain: MAADYDKLFRPHEGMEAPDDMAAQPFFDPSASFPPAPASANLPKPNGQTPPPTSDDLSERFVSAPPPPPPPPPPPPPTPMPIAAGEPPSPEPAASKPPTPPMPIAGPEPAPPKPPTPPMPIAGPEPAPPKPPTPPMPIAGPAPTPTESQLAPPRPPTPQTPTGAPQQPESPAPHVPSHGPHQPRRTAPAPPWAKMPIGEPPPAPSRPSASPAEPPTRPAPQHSRRARRGHRYRTDTERNVGKVATGPSIQARLRAEEASGAQLAPGTEPSPAPLGQPRSYLAPPTRPAPTEPPPSPSPQRNSGRRAERRVHPDLAAQHAAAQPDSITAATTGGRRRKRAAPDLDATQKSLRPAAKGPKVKKVKPQKPKATKPPKVVSQRGWRHWVHALTRINLGLSPDEKYELDLHARVRRNPRGSYQIAVVGLKGGAGKTTLTAALGSTLAQVRADRILALDADPGAGNLADRVGRQSGATIADVLAEKELSHYNDIRAHTSVNAVNLEVLPAPEYSSAQRALSDADWHFIADPASRFYNLVLADCGAGFFDPLTRGVLSTVSGVVVVASVSIDGAQQASVALDWLRNNGYQDLASRACVVINHIMPGEPNVAVKDLVRHFEQQVQPGRVVVMPWDRHIAAGTEISLDLLDPIYKRKVLELAAALSDDFERAGRR
In the case of B9, the Resp. freq. was found to be 18% and the “Total SFC” value worked out at 1323 SFC.

B10: Rv0297: MTB protein, novel CD4 T cell antigen; PE/PPE (protein, listed as Mycobacterium tuberculosis)
chain: MSFVIAQPEMIAAAAGELASIRSAINAANAAAAAQTTGVMSAAADEVSTAVAALFSSHAQAYQAASAQAAAFHAQVVRTLTVDAGAYASAEAANAGPNMLAAVNAPAQALLGRPLIGNGANGAPGTGQAGGDGGLLFGNGGNGGSGAPGQAGGAGGAAGFFGNGGNGGDGGAGANGGAGGTAGWFFGFGGNGGAGGIGVAGINGGLGGAGGDGGNAGFFGNGGNGGMGGAGAAGVNAVNPGLATPVTPAANGGNGLNLVGVPGTAGGGADGANGSAIGQAGGAGGDGGNASTSGGIGIAQTGGAGGAGGAGGDGAPGGNGGNGGSVEHTGATGSSASGGNGATGGNGGVGAPGGAGGNGGHVSGGSVNTAGAGGKGGNGGTGGAGGPGGHGGSVLSGPVGDSGNGGAGGDGGAGVSATDIAGTGGRGGNGGHGGLWIGNGGDGGAGGVGGVGGAGAAGAIGGHGGDGGSVNTPIGGSEAGDGGKGGLGGDGGGRGIFGQFGAGGAGGAGGVGGAGGAGGTGGGGGNGGAIFNAGTPGAAGTGGDGGVGGTGAAGGKGGAGGSGGVNGATGADGAKGLDGATGGKGNNGNPG
As to B10, the Resp. freq. was 14% and the “Total SFC” value was 154 SFC.
